We go through 5 molecules from patent US20240309080A1 (CHIA TAI TIANQING PHARMACEUTICAL GROUP, published 2024).

Residue numbers refer to the chain shown, from its start. Like-named read-outs stand apart in the source and are kept apart here.

What all share (assay): cell-based or functional assay
The target of assay [1] is T1, recombinant human TSLP-his (human, UniProt Q969D9 29-159, biotin-labeled in the capture ELISA).
The target in assay [2] is T1, recombinant human TSLP-his. This is another data set of the same source.
For assay [3], the target named is T1, recombinant human TSLP-his. The source holds these as a separate data set.
Assay [4] deals with T1, recombinant human TSLP-his. This is another data set of the same source.
In assay [5] the target is T1, recombinant human TSLP-his. The source holds these as a separate data set.
Assay [6] addresses T1, recombinant human TSLP-his. This is another data set of the same source.

B1: Chimeric 1C5F12E9 (antibody, V domains shown)
VH: QVQLQQPGTELVKPGASVKMSCKASGYTFTTYWMHWVKQRPGQGLEWIGVIDPSDSDTTYNQKFKGKATLTVDTSSSTAYMQLSSLTSEDSAVYYCTRSLDGYYDYWGQGTTLTVSS
VL: DIQMTQSPASLSASVGETVTITCRPTENIYSYLAWYQQKQGKSPHLLVYFARTLAEGVPSRFSGSGSGTQFSLKINSLQPEDFGIYYCQHHYGTPWTFGGGTKLEIK
In the case of B1, the “IC50, TSLP-his dependent survival and proliferation of BAF3-3E6 cells expressing TSLPR/IL7R (Cell Titer-Glo, RLU)” value (“IC50 … (Cell Titer-Glo, RLU)” for short) in assay [1] was 0.521 pM; in assay [2], 1.37 pM.

B2: hu1C5F12E9-V8 (IgG1) (antibody)
heavy: not shown
light: DIQMTQSPSSLSASVGDRVTITCRPTENIYSYLAWYQQKPGKAPKLLIYFARTLAEGVPSRFSGSGSGTDFTLTISSLQPEDFATYYCQHHYGTPWTFGGGTKVEIKRTVAAPSVFIFPPSDEQLKSGTASVVCLLNNFYPREAKVQWKVDNALQSGNSQESVTEQDSKDSTYSLSSTLTLSKADYEKHKVYACEVTHQGLSSPVTKSFNRGEC
As to B2, the “IC50, STAT5-luciferase reporter in HEK293T-TSLPR/IL7R/STAT5-Luc cells stimulated with human TSLP-his (RLU)” value in assay [3] turned out to be 0.0118 µg/mL. In assay [4], the “IC50, TSLP-his dependent survival and proliferation of BAF3-3E6 cells expressing TSLPR/IL7R (RLU)” value came out at 4.32 pM.

B3: hu1C5F12E9-V8 (IgG4) (antibody)
heavy: not shown
light: B2 light
For the molecule B3, the “IC50, STAT5-luciferase reporter in HEK293T-TSLPR/IL7R/STAT5-Luc cells stimulated with human TSLP-his (RLU)” value in assay [3] was around 0.0162 µg/mL. Also, in assay [1], the “IC50 … (Cell Titer-Glo, RLU)” value worked out at 1.68 pM. Besides, the “IC50, TSLP-his dependent survival and proliferation of BAF3-3E6 cells expressing TSLPR/IL7R (RLU)” value in assay [4] turned out to be 14.7 pM.

B4: hu1C5F12E9-V14 (IgG4) (antibody)
heavy: not shown
light: B2 light with A43S
As to B4, in assay [5], the “IC50, STAT5-luciferase reporter in HEK293T-TSLPR/IL7R/STAT5-Luc cells stimulated with human TSLP-his (RLU)” value was determined as 0.025 µg/mL. Moreover, the “IC50, TSLP-his dependent survival and proliferation of BAF3-3E6 cells expressing TSLPR/IL7R (RLU)” value in assay [6] was 8.36 pM. In addition, the “IC50 … (Cell Titer-Glo, RLU)” value in assay [2] came to 5.78 pM.

B5: hu1C5F12E9-V14 (IgG1) (antibody)
heavy: not shown
light: B2 light with A43S
As for B5, in assay [5], the “IC50, STAT5-luciferase reporter in HEK293T-TSLPR/IL7R/STAT5-Luc cells stimulated with human TSLP-his (RLU)” value came to 0.022 µg/mL. The “IC50, TSLP-his dependent survival and proliferation of BAF3-3E6 cells expressing TSLPR/IL7R (RLU)” value in assay [6] was found to be 6.73 pM.
